experiment: soluble on expression in E. coli; label from the status in PepcDB or PDB records

| Sequence | soluble on expression in E. coli |
| --- | --- |
| SLPVINGAHVISMKNYTLVSDAYGEKGVKKVYEDEYLICENLKSFNKNLHPNFNFACFCLFDGHNGKNTAMFLKRNLAQELSNSFLEMQNTYDSSLPIPDHFIKISVNNTCKRIDERIAQEYPNSRDGATCVIVLIKDEYAYIINIGDSCAYLCRYLNNSNQAIELVDIHKPWVITEKERIIKHGGTIENGRVNDIIDVTRSFGDLSLKKYGLLCTGTFKKFKINSDDNFIILGTDGFFGSVDINYVINEITNLSKKEERLVNVEKKKTVFDAKSICNIMVEHAIVDKKSQDNVTVVLIKFLHKKGNSSTTTTTTEIRLLTKPERKLSWLLPPLSNN | soluble |
| MAHHHHHHMNAKNDASESLLCGGEDISALVVDLGFSTTKIGHNQEDTPRVFLRSTCGEDVSPDGGSPRGDPSPKLKFPLNLHNPKEHLRIKPLFERNPVDNTTHMNSDVFERILRYGIEGVESKRVFHCSDEIPTPVKLGGLNLKIEEHPILLSEENIHNHRVRAEMTEILFETFNIPAVYFAKKAKLTAFSLGRSNALVIDIGGSSLNVTPVYEGYVLQRNSLQFGVGGDYFDRLIYGMLRKDQVRVVPYYEQGRGGSGGLGSASASCSPSCSFSGATHHPNVHSSYEEEAILDVIRYMKESICKVRVAHQSSANKKSETTSGGLKNGKEVEPTGQTHNGAKNVNAPKWQTGQTEEEEFFELPDGVKIKTDKYRYDIAEELFRAVPSAHNFNGLPEAIVNCIISSDVDIRKELLQAIIVTGGSSLFPGLVDRLYNSLREKECFSQSIKMKILNMTSSVECLYSSWLGGSILASLGTFQQLWVSRAEYDDAGHAIVSDRCF | not soluble |
| MVVKSLVYGIYPRSERLRKAYNRWERGLVGNEEIRRTISEEKDRFYEYVKSVGISEFTDPLFNWHDIFRPIALSVSGVTLGPLKRYLETNTFYREPEISGHITLQRKLDTFDLLEENPPLPLFALAKGSSIFLPTPSSFYKMSSVKANIGAEELYKDLVNVYSDIIDIFKPRSLVLYEVFPYNGDNLSYLESLNQKISVHLLTKGKISEKNFNGIKHKFESIISDDHPEFLKNYAKYYGFKIIDVNKTKVEDPNADYGIENYEDAIVTSNDYFDFLPREIADIKVEVLGKVGEAAALEHHHHHH | not soluble |
| MGSDKIHHHHHHMDVFSANQSAQGIVEEAQQANALDHPAAFEIPRSAVIDIKDSISGRTYPLFIKLPKSYRSQPNKRYPVIYLTDSWYSFQIVSGATRFPMNFNKMDEAIIVAISYSEGSRGSSSRNRDYTPSVNPAWKDITGGAAAHRDFIETTVFDYVERHYRAEAGSRIFVGNSFGGLFGTYVLMSKPEMFDSYILGSPSYWWDKGYIFELEKQFRKSAKPVSAKVFIGIGELEKKVNGVGEDMVKEAQAFYDLMQQWSSRPQTKLLIIPEADHQTAFPTTAIHGLQWILGKCPPKGNCLQGNLN | not soluble |
| MGSDKIHHHHHHMSAPTITTLGEFLQAGQAEYKIFDIGRCLTELSQEEFAAIEQQQRPYPYPIARQAQLAILFQHKQHDQQPFIWFLQFPLDERGLLNIAARNQYLEYVVNALGHEITGEMTEEQQKQLQQNPYLLTPNEQQRAALHARVQRQQKLSPSIHFETAEAYLKQPESGIDWQQMGLQGLHDCAARLEQLPELSKAIATHFSHYPSAVRQPLAVALEQQSLTPPVRDALLQNLESSNAQLCTDSLRALASASAHPRVKKAVNKLVPHANADQLVVIAARLWPVLCEEQNLLRYLDAIAELDNSLFDALFQDIIALPDIRPLLLSIIAQQKQSAAVNEALNRLKQQTQGS | not soluble |
| VELIGRSEWINQYRRRLQQLSETDIAVWLYGAPGTGRMTGARYLHQFGRNAQGEFVYRELTPDNAPQLNDFIALAQGGTLVLSHPEHLTREQQYHLVQLQSQEHRPFRLIGIGDTSLVELAASNHIIAELYYCFAMTQIACLPLT | soluble |
| MSLAPFTTNPRRFDPYKNFKFRVKWDGRYVAGISKVGALKRSTEVIEHREGGDPSTGRKSPGRTKYDAISMERGVTHDLDFEQWANKVWNFGAGLGSEVSLADFRKDLIIDVFNEAGQKVMSYQVFRCWVSEYQALPDLDANANAIAIQSMKLENEGWLRDVAVAEPAEPSFTIPAEGHHHHHH | soluble |
| MEILSGRSSIIIDTDPINVYNQAHPPFSFPIPAKDVMSVASRPDLRNENLMVFSSIEGDLALLKSMNLPANVKIVYDNTDGSWVRYYPYAFYRSINAEELYAKIDDFVVLDIREEFELFSGFIEGSVNIPFSSIMQEPVELDKNRKYAVVCAHGNRSRVAVELLSSKGIEVYDVPGGMQKWLETGLPVSYEED | not soluble |
| MGSDKIHHHHHHMARQFIYHMAGLSKTYGNKKILENIHLSFYPDAKIGILGPNGAGKSTILRIMAGIDKEYTGEAWLSEGVRCGYLPQEPFLDASKDVRDNVMEGVADKQAIVERYNELMMNYSEETADESARLQDIIDGQNLWDLESQVEMAMAALGCPPANGDVTKLSGGERRRVALCKLLLSKPDLLLLDEPTNHLDAETTAWLERYLREYSGAVLLVTHDRYFLDNVTGWILELDRGKGIPYEGNYSAYLAAKAKRLAQEGREEAARQRALSREQEWIASSPKGRQAKSKARIKAYDELVQASRERRPGEAQIIIPIGERLGQVVIEVDNLSKAYGERVLIDDLSFKLPAGGIVGVIGANGMGKSTLFKMLTGQEQPDSGQIRIGETAHMSYVDQSRDSLVGDKTVWEEISGGNDVIKLGKYEMNSRAYCGAFNFKGADQQQKVANLSGGQRNRVHLAKLLKEGGNVLLLDEPTNDLDTETLGALEDALENFAGCAVIISHDRMFLDRLATHILAFEGDGHVEWFEGNFAEYEADKVRRFGADSLNLKRVNYKPLTR | not soluble |
| MGSDKIHHHHHHMNADEFVEAFNNAKDLTELELLAELGKSISDDLEGHEKGKVLGTLGNIYYALHRLKEAEEAYLEALNVYLKLSEEDEGFLPYVVGCLYNLGNLYQVSRKFAEAEKAYTDALKVLGDVRNDQRLAILTALGTMYAKLDMKEHAERCLVEAFEMAKVKGDARLLGTLLNNLAVVYQRGGRKREAAMLLKMALDALERVGEDLGIAAVLQNLLPYLDEDELRRVMERLESFGELPIDLKAKIAYFKARRAEEKGEDSAKHYMEAACLGFMAYRNFGFQSINFMHCLDKVIESDSELREDAVVLKKVILKYYYGSQKVEIDFDSRVGRMIKAVLEGDDIYEDGILEDTVRLIAEDLLKAGTKV | not soluble |
| MGSDKIHHHHHHMKKLVATAPRVAELVEYHDREVVEDEVKIKVQFASPKHGTEVVDFRGISPFIDEEFSPEWNLFVSRETNSARGIVFGEFQLGNMVVGEVVECGSKVTEYALGDIVCSYGPIMETVIVKAVDNYKLRKLPKGANWKNAVCYDPAQFAMSGVRDAHVRAGDYVVVVGLGAIGQIAIQLAKKAGASVVIGVDPLSHRREIAEKHGADATFDPITTDVGLEVKRLTGKLGADSIIETSGNAAALQAALRGIAYGGTISYVAFAKPFPEGFNLGREAHFNNAKIVFSRAASEPNPDYPRWDRKRIEETCWELLMNGYLDCTDIIDPVVPFADSAESYMKYVDQQPDLSIKMGITL | not soluble |
| MLDRILSIRKSRANRLRESMAKINSQIKEVDGKLDDCEQSIKESIASKQAYCASLVNLDKVSLYKYQIKNNAFDEQKQRLYEKKSSLSKEKRSLLDSQKRTKENLQHVNKSVEKLSFAIKEHYFD | not soluble |
| MSLDLAADILVADAHMHTNPTRGLGAREVARRFRREGGWFAALLTLTTWSYGLAPTGVEAYRRMYEIHLRECRAAREEGLRVACFAGIHPAEVDRMIDKHRQPPEKALETALEAVEVLRRLCREGAIDGVGEVGRQHYRTSPLRVAIAEVVLEEAAAAALEEGCLLQLHLENEGPATVETVDRILRRAGATGARRGMVIFHHATLRVAKEAVARGYNATIPGVPKLLEHAAANEPPDYMVESDYLDDPARPGAVVEPWKMAQKLREIASRTPETREWVRRTNIDLVERVFQASPPEGHHHHHH | soluble |
| PRYTEVTEEQIIVKQIWGQLVFDRKEMEIVPIGKDDLKSSLRTFGNGGLFGYAGYFRNKKLGKYRMYVTRLKDLSLLTDRNGKKTVINLRQV | not soluble |

Source: the DeepSol protein solubility set
